From IntAct's records for PubMed 20148946

B1: Putative E3 ubiquitin-protein ligase UNKL (Homo sapiens), Q9H9P5 (parent)
chain: MPSVSKAAAAALSGSPPQTEKPTHYRYLKEFRTEQCPLFSQHKCAQHRPFTCFHWHFLNQRRRRPLRRRDGTFNYSPDVYCSKYNEATGVCPDGDECPYLHRTTGDTERKYHLRYYKTGTCIHETDARGHCVKNGLHCAFAHGPLDLRPPVCDVRELQAQEALQNGQLGGGEGVPDLQPGVLASQAMIEKILSEDPRWQDANFVLGSYKTEQCPKPPRLCRQGYACPHYHNSRDRRRNPRRFQYRSTPCPSVKHGDEWGEPSRCDGGDGCQYCHSRTEQQFHPESTKCNDMRQTGYCPRGPFCAFAHVEKSLGMVNEWGCHDLHLTSPSSTGSGQPGNAKRRDSPAEGGPRGSEQDSKQNHLAVFAAVHPPAPSVSSSVASSLASSAGSGSSSPTALPAPPARALPLGPASSTVEAVLGSALDLHLSNVNIASLEKDLEEQDGHDLGAAGPRSLAGSAPVAIPGSLPRAPSLHSPSSASTSPLGSLSQPLPGPVGSSAMTPPQQPPPLRSEPGTLGSAASSYSPLGLNGVPGSIWDFVSGSFSPSPSPILSAGPPSSSSASPNGAELARVRRQLDEAKRKIRQWEESWQQVKQVCDAWQREAQEAKERARVADSDRQLALQKKEEVEAQVIFQLRAKQCVACRERAHGAVLRPCQHHILCEPCAATAPECPYCKGQPLQW

Variants of: B1
Details: with ubi4p_yeast UBI4, P0CG63
Sequence of ubi4p_yeast UBI4, P0CG63 (P0CG63 whole entry): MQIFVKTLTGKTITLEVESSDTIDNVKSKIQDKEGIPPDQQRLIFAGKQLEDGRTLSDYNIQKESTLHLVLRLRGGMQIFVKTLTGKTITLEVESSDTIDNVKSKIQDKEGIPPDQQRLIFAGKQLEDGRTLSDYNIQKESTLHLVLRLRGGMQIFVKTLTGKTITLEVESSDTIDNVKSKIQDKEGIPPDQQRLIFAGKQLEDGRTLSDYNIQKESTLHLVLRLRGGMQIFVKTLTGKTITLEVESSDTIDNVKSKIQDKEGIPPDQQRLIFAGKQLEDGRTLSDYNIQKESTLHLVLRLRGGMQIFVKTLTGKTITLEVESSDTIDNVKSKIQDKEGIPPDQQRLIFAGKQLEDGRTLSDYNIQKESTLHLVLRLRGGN

| effect of a mutation on the interaction | Variant |
| --- | --- |
| decreasing interaction | C670A |
| decreasing interaction | C639A |
